In patent US20140148361, “Generation and Expression of Engineered I-ONUI Endonuclease and Its Homologues and Uses Thereof” (published 2014):

B1: I-OnuI wild-type target site (RPS3) (dsDNA)
DNA 1: TTTCCACTTATTCAACCTTTTA
DNA 2: TAAAAGGTTGAATAAGTGGAAA
B2: I-LtrI co-crystal duplex (dsDNA)
DNA 1: GGTCTAAACGTCGTATAGGAGCATTTGG
DNA 2: CAAATGCTCCTATACGACGTTTAGACCC

How the values were obtained:
I-OnuI = molecular target: T1, I-OnuI (Ophiostoma novo-ulmi); assay: structure; co-crystal structure at 2.4 A (PDB 3QQY); details: tags: GST fusion (pGEX-6P-3), tag removed by PreScission protease; label: 32P (radiolabeled) in EMSA and cleavage
T1 chain: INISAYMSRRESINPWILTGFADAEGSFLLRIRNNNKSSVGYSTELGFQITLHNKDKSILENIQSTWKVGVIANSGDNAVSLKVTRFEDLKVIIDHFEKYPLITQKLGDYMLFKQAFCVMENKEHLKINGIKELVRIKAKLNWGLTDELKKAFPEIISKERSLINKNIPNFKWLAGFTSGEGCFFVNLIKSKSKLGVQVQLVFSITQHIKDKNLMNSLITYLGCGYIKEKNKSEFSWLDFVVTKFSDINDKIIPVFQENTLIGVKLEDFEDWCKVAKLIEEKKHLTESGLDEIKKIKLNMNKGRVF

I-LtrI = molecular target: T2, I-LtrI (Leptographium truncatum, UniProt C7SWF3 C7SWF3:407-712); assay: structure; co-crystal structure at 2.7 A (PDB 3R7P); details: overhang ends
T2 sequence: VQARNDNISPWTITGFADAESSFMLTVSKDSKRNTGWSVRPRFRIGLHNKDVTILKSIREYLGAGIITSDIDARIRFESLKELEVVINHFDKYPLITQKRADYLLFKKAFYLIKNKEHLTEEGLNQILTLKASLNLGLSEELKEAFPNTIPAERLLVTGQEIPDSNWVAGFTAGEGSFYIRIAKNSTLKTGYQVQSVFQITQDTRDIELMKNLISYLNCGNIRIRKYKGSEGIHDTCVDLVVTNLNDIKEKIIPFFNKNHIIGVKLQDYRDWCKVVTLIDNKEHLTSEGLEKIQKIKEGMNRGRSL
Experimental: To obtain I-LtrI-DNA co-crystals, the DNA oligonucleotides (5′-[…]-3′ (SEQ ID NO: 119) and 5′-[…]-3′ (SEQ ID NO:120)) were purchased from Integrated DNA Technologies ([…], standard desalting purification). The oligonucleotides were dissolved in TE buffer (10 mM Tris-HCl (pH 8.0) and 1 mM EDTA), and the complementary DNA strands were annealed by incubation at 95° C. for 10 min and slow cooling to 4° C. over a six hour period. […] The protein-DNA drops were mixed in a 1:1 volume ratio with a reservoir solution containing 100 mM Bis-Tris (pH 6.5), 200 mM magnesium chloride, and 20% (v/v) polyethylene glycol 3500 and equilibrated at 22° C. The crystals diffracted up to approximately 2.7 Å resolution at the ALS beamline 5.0.1. The data set was processed using HKL2000 package. The polyalanine model of I-OnuI/DNA complex (PDB ID: 3QQY) was used as a search model for molecular replacement. One copy of the search model was found and the structure was refined using REFMAC5. The final model was deposited in RCSB Protein Data Bank with ID code 3R7P.

Row | Binder | binding result (I-OnuI) | binding result (I-LtrI)
1 | B1 | binds | 
2 | B2 |  | binds
